Test results as given in patent publication US20190248907A1 (Merck KGaA, published 2019).

Target: T1, human c-MET ECD (human, UniProt P08581 25-932)
T1 construct: also called recombinant human c-MET ECD; human c-MET ECD-His
Experiment: not stated (summary of antibody properties, FIG. 6)

T1 sequence (P08581 25-932 limits assumed): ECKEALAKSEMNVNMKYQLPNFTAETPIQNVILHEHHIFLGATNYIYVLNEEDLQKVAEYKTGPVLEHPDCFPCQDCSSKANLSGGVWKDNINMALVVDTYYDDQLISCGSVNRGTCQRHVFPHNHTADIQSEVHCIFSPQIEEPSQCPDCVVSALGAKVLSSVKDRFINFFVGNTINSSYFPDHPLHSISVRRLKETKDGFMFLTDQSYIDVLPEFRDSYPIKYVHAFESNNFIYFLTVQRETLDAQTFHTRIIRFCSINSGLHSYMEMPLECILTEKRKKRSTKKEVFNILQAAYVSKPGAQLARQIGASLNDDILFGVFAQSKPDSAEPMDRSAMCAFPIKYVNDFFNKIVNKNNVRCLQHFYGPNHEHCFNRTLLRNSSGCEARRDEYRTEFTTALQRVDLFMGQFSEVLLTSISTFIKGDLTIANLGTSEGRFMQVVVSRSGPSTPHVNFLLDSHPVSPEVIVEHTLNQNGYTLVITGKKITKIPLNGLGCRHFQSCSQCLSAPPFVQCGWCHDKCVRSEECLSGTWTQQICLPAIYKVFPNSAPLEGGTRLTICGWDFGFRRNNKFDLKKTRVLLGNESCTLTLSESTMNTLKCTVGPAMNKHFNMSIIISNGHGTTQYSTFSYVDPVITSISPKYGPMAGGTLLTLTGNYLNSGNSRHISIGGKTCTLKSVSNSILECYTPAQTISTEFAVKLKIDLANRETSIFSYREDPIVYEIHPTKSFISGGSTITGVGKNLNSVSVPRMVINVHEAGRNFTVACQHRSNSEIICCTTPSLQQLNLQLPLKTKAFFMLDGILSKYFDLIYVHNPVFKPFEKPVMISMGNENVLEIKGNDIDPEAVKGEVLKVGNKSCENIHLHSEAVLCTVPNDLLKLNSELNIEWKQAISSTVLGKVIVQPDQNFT

B1: oa CS06 (antibody, V domains shown)
VH: QVQLQQSGAEVKKPGSSAKVSCKASGGTFSSNAISWVRQAPGQGLEWMGGIIPIFGTAIYAQKFQGRVTITADESTSTAYMELSSLRSEDTAVYYCARDQRGYYYYYYYGMDVWGQGTTVTVSS
VL: QLVLTQSPSVSVAPGKTARITCGGNNIRNVGVHWYQKKPGQAPILVVYDDDDRPSGVPERFSGSNSGNTATLTISRVEAGDEADYYCQVWDSATDQRVFGGGTKLTVL
notes: also called one-armed CS06; anti-c-MET clone CS06 (monovalent one-armed format); copies: 1 + 1
- Kd: ~0.3 nM

B2: CS06 IgG1 (antibody, V domains shown)
VH: B1 VH
VL: QLVLTQSPSVSVAPGKTARITCGGNNIRNVGVHWYQKKPGQAPILVVYDDDDRPSGVPERFSGSNSGNTATLTISRVEAGDEADYYCQVWDSATDQRVFGGGTKLTVLG
notes: Bivalent IgG1; also called anti-c-MET clone CS06
- Kd: ~0.134 nM

B3: biparatopic bispecific heterodimeric immunoglobulin molecule comprising Fab fragments CS06 and B10v5 (bispecific antibody)
chain 1: QLVLTQSPSVSVAPGKTARITCGGNNIRNVGVHWYQKKPGQAPILVVYDDDDRPSGVPERFSGSNSGNTATLTISRVEAGDEADYYCQVWDSATDQRVFGGGTKLTVLGQPKAG
chain 2: B1 VH
chain 3: EPVLTQPPSVSVAPGETATIPCGGDSLGSKIVHWYQQRPGQAPLLVVYDDAARPSGIPERFSGSKSGTTATLTISSVEAGDEADYFCQVYDYHSDVEVFGGGTKLTVLGQPKAA
chain 4: not shown
- Kd: ~0.0196 nM
